{
  "source": "patent US12472269B2",
  "about": "“Liver-specific inducible promoters and methods of use thereof” (ASKBIO INC., priority 2019, dated 2025)",
  "molecules": {"B1": {"name": "PB1-MinTK: promoter: single mouse PBREM element and MinTK minimal promoter, SEQ ID NO: 7 (nucleic acid)", "DNA": "TCTGTACTTTCCTGACCTTGGCACAGTGCCACCATCAACTTGCCTGACACCGATCCGGCCCCGCCCAGCGTCTTGTCATTGGCGAATTCGAACACGCAGATGCAGTCGGGGCGGCGCGGTCCGAGGTCCACTTCGCATATTAAGGTGACGCGTGTGGCCTCGAACACCGAGCGACCCTGCAGCGACCCGCTTAACAGCGTCAACAGCGTGCCGCAGATCTCGAGGAGCTTGGCGAGATTTTCAGGAGCTAAGGAAGCTAAAC", "modifications": "PB1-MinTK"}},
  "system": "Huh7 cells",
  "assay": "EPO expression (ELISA of medium) from PB1-MinTK in Huh7 cells with CAR-containing plasmid, induction by CITCO",
  "format": "cell-based, human",
  "text": "• Huh7 cells which are a human liver cell line • DPBS: without CaCl2, without MgCl2 (Gibco, 14190-094) • DMEM (Sigma, D6546) • FBS (Sigma, F9665) • Pen-Strep (Sigma, P4333) • Promega Fugene-HD (E2311) • TCPOBOP (Sigma, T2320) • CITCO (Cayman Chemicals Company, 16027) • pcDNA6 plasmid which contains the β-galactosidase gene used as internal control for transfection efficiency (Thermofisher, V22020) • mouse CAR expression plasmid from Jouan et al, 2016 (BioCat GmbH, EX-Z4288-M51-10-GC). This was used as Huh7 is CAR deficient. • β-galactosidase substrate solution (Thermofisher, 75707/75710) • Pierce BCA kit (23225) • LARII (Dual Luciferase Reporter 1000 assay system, Promega, E1980) • EPO ELISA kit (Abcam, ab119522) Method: Day 1 • Cells were seeded onto a 48 well plate at a density of 25,000 cells/300 μl Day 2 • On the day of transfection, DNA to be transfected (CAR plasmid/PB1-MinTK operably linked with luciferase or EPO/pcDNA6 plasmid for internal control) was diluted to a 100 ng/μl stock solution. Per 48 Well Transfection: • 45 ng of DNA (15 ng of each plasmid, pcDNA6, CAR and test plasmid) was mixed with 4.1 μl of Optimem medium. • 0.5 μl of Fusion HD was mixed with 4 μl of Optimem medium. • These 2 solutions were mixed and incubated at room temperature for 15 minutes. • The final solution was then added to the well drop wise. • 3 hrs after transfection, the inducer TCPOBOP was added to the appropriate wells at the indicated concentration. Day 3 • 24 hrs after induction the media was removed from the cells. • The cells were washed once in 300 μl of DPBS • Cells were lysed using 100 μl of passive lysis buffer and incubation with rocking for 15 minutes • The cell debris was pelleted by centrifugation of the plate at max speed in a benchtop centrifuge for 1 min • For luciferase, 10 μl sample was transferred into white 96-well plate and luminescence measured by injection of 50 μl of LARII substrate. • β-galactosidase activity was measured as per manufacturer's instructions (Mammalian β-Galactosidase Assay Kit, 75707/75710, Thermo Scientific) using 25 μl of lysate. 25 μl of lysate was transferred into a microplate well and mixed with 25 μl of β-galactosidase Assay Reagent, equilibrated to room temperature. The mixture was incubated at 37° C. for 30 min and absorbance measured at 405 nm. • Protein concentration was measured as per manufacturer's instructions (Pierce™ BCA Protein Assay Kit, 23225/23227, Thermo Scientific) using 25 μl of lysate. 25 μl of lysate was transferred into a microplate well and mixed with 200 μl of working solution. The mixture was incubated at 37° C. for 30 min, cooled to room temperature and then absorbance measured around 562 nm. The protein concentration was calculated with respect to protein standard curve prepared from assaying standards with known protein concentration.\nTransfections with PB1-MinTk-EPO were performed as described above with the exception that EPO is secreted into the medium. Therefore, medium was collected, and EPO concentration measured as per manufacturer's instructions (ab119522 Erythropoietin (EPO) Human ELISA Kit, Abcam) using an ELISA assay. 50 μl of medium was transferred to a pre-washed microplate wells and mixed with 50 μl of 1× Biotin Conjugated Antibody. The mixture was incubated at room temperature for 1 hour. The wells were washed, 100 μl of Streptavadin-HRP was added and the plate was incubated at room temperature for 15 minutes. The wells were washed and then 100 μl of TMB Substrate Solution. The mixture was incubated at room temperature for 10 minutes. The enzyme reaction was stopped by addition of 100 μl of Stop Solution and absorbance was read at 450 nm. The EPO concentration was calculated with respect to EPO standard curve prepared from assaying standards with known EPO concentration.\nThe PB1-MinkTK promoter was then used to drive expression of the protein EPO, which is of therapeutic interest. […]",
  "data": [
    {"molecule": "B1", "values": [
      {"measurement": "overall EPO expression level relative to CMV-IE", "setting": "CITCO induced (data not shown)", "value": "around 22%"},
      {"measurement": "EPO production", "setting": "addition of up to 2 μM CITCO", "value": "marked increase in the production of EPO"},
      {"measurement": "EPO expression", "setting": "highest concentration of CITCO (3 μM)", "value": "returns towards baseline activity"},
      {"measurement": "EPO expression", "setting": "no addition of the drug (DMSO)", "value": "very little expression of EPO"}
    ]}
  ]
}
